Source: PMC5098445 (mAbs, 2016)
Changes are numbered by the printed parent chain.

B1: scFv of AK18 (IGF-1R-binding region) (scFv, V domains shown)
VH: QVELVESGGGVVQPGRSQRLSCAASGFTFSSYGMHWVRQAPGKGLEWVAIIWFDGSSTYYADSVRGRFTISRDNSKNTLYLQMNSLRAEDTAVYFCARELGRRYFDLWGRGTLVSVSS
VL: EIVLTQSPATLSLSPGERATLSCRASQSVSSYLAWYQQKPGQAPRLLIYDASKRATGIPARFSGSGSGTDFTLTISSLEPEDFAVYYCQQRSKWPPWTFGQGTKVESK
B2: scFv of F13B5 (IGF-1R-binding region) (scFv, V domains shown)
VH: B1 VH
VL: B1 VL with D50Q, W94Y

Target: human insulin-like growth factor 1 receptor (Homo sapiens, UniProt P08069)
Experiment: SPR

human insulin-like growth factor 1 receptor, sequence (P08069 31-1367): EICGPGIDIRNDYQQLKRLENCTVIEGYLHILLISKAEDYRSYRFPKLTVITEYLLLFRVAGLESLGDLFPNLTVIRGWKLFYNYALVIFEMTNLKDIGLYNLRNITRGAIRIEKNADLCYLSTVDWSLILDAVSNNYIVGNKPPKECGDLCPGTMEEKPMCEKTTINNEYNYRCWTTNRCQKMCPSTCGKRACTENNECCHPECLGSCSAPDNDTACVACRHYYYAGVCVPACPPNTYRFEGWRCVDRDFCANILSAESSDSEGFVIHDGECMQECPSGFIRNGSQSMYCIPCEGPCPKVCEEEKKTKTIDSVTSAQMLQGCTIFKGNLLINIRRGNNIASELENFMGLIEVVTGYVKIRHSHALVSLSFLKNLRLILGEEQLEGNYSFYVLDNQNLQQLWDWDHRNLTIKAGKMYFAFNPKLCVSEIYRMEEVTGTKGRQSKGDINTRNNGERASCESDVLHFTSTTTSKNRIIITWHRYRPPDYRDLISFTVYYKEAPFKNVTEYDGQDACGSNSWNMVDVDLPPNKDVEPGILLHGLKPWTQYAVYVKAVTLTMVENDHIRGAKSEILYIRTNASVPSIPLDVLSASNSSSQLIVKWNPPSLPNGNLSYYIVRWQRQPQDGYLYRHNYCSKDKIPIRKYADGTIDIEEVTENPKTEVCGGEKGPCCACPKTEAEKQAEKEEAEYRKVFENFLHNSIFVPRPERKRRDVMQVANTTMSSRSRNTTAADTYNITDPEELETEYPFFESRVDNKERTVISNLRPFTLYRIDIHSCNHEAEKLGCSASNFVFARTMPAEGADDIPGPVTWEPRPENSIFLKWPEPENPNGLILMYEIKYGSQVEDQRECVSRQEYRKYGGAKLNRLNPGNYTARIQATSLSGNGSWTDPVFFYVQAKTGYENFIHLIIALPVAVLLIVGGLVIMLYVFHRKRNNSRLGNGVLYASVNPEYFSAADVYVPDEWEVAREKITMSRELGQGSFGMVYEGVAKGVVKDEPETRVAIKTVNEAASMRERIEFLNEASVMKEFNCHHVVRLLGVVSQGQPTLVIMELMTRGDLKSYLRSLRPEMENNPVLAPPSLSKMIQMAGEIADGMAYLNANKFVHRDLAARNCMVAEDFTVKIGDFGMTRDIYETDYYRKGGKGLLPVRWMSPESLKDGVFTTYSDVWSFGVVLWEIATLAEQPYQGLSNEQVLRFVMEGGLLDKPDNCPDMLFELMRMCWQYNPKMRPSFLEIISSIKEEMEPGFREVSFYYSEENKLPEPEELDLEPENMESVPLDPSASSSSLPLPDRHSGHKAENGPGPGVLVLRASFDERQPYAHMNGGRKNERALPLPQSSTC

Row | Binder | binding result
1 | B1 | binds
2 | B2 | binds
